The record followed here is the DeepSol protein solubility set.

This data set is described as follows: soluble on expression in E. coli; label from the status in PepcDB or PDB records.
In the case of “MTESYDVVVVGGGPVGLATAWQVAERGHRVLVLERHTFFNENGGTSGAERHWRLQYTQEDLFRLTLETLPLWRALESRCERRLIHEIGSLWFGDTDVVTNEGQISGTAAMMDKLSVRYEWLKATDIERRFGFRGLPRDYEGFLQPDGGTIDVRGTLAALFTLAQAAGATLRAGETVTELVPDADGVSVTTDRGTYRAGKVVLACGPYTNDLLEPLGARLAYSVYEMAIAAYRQATPVTEAPFWFAFQQPTPQDTNLFFGFGHNPWAPGEFVRCGPDFEVDPLDHPSAATGVADRRQMDRLSGWLRDHLPTVDPDPVRTSTCLAVLPTDPERQFFLGTARDLMTHGEKLVVYGAGWAFKFVPLFGRICADLAVEDSTAYDISRLAPQSALLEHHHHHH”, the “soluble on expression in E. coli” value is on record as “soluble”. In the case of “MTETLDHMDQSKIDHQKLAQQLLAQAKAEGVELVGPNGLLNQLTANVLETALEAEMDEHLGYEKHHVTGRNRENSRNGRRTKTVLTEIGPVQIQVPRDTDASFDPQIVKKRQRRLTGVDEIILSLSAKGLTTGEIAAHFDDVYGASVSKETISKITDKVLTEMAEWSVRPLDPVYPVLFIDAIHVKIRDGQVANRPVYVAIGVTTAGEREILGLWAGDGGEGAKFWLAVLTEIRNRGVADVCIAVCDGLKGLPDAITTVWPLTVVQTCLIHLLRNTFRYASRQYWDEMSRDLRPIYTAVNEAAAKEQFTEFADKWGPRYPAIVRLWESAWSEFVPFLDYDPEIRRVICSTNAIESLNARYRRAVRARGHFPSEQAALKCLYLATRSLDPTGKGRARWVTRWKPALNAFAITFEGRITPTVI” it was “not soluble”.

As to “MTFLDRTPDIILTMNEEGVIVSQNETARRVFGDVGGKIYSEICKDDTCSVGDRYYSMVAIKGFRRTIVVGRDITERIRLEKELEDRERKFKALAELSPAGILVHHQGTILFVNEALCQIHGYTREELLNRKVWDLIHPDYHDLARAMMQKRLEGEKPVYELKTIRKDGSERWVLVAGGAIDWDGKKSVMAFAIDITDKKMIEQRLAEREELFRSIFNISPAGLYILVGGKFKLVNPAFERITGYSAEELVGMKSLEIVAEEDREFVRRKAIEMLKGRETEPYKYRVVRKDGKIRWVYENVASIAYEGERAALGSVIDITEIEEERKRLEELTSMLELINKTLRHDVLNALTSAMALLEMGIEESNKDYLNKALTSINRAVSIVRNMRAFEDAVKSGELRCIDVGELVSEVAKSFENVSVKGEGRALADEGLRSVVENIVNNAFIHSGTDRVEITVSEGKEWCEIRIADFGIGIPDEIKQRIFEEGFKYGKAAQTGLGLFIARKIVERYAGEIWVEDNEPKGSVFVIRLKKC”, the “soluble on expression in E. coli” value was “not soluble”.

“MTFLKEYVIVSGASGFIGKHLLEALKKSGISVVAITRDVIKNNSNALANVRWCSWDNIELLVEELSIDSALIGIIHLATEYGHKTSSLINIEDANVIKPLKLLDLAIKYRADIFLNTDSFFAKKDFNYQHMRPYIITKRHFDEIGHYYANMHDISFVNMRLEHVYGPGDGENKFIPYIIDCLNKKQSCVKCTTGEQIRDFIFVDDVVNAYLTILENRKEVPSYTEYQVGTGAGVSLKDFLVYLQNTMMPGSSSIFEFGAIEQRDNEIMFSVANNKNLKAMGWKPNFDYKKGIEELLKRL”: the “soluble on expression in E. coli” value is recorded as “not soluble”.

As for “MTFNQEQDYWAGYKANERALIIQTWSGFGRYAPDHLYPPHILPLDTDNETLGTTVLQALANSRTFVYDSPEDQDFFDTEKIRQRYEDWVAKLCGNLGYKTRRALFKNMMSVDIWLHNGCLKISPSRHVKLEAWDAIDADDVILSLDNSPEEIGAGLKLALSRCR”, the “soluble on expression in E. coli” value was “soluble”. As to “MTFRNCVAVDLGASSGRVMLARYERECRSLTLREIHRFNNGLHSQNGYVTWDVDSLESAIRLGLNKVCEEGIRIDSIGIDTWGVDFVLLDQQGQRVGLPVAYRDSRTNGLMPQAQQQLGKRDIYQRSGIQFLPFNTLYQLRALTEQQPELIPHIAHALLMPDYFSYRLTGKMNWEYTNATTTQLVNINSDDWDESLLAWSGANKAWFGRPTHPGNVIGHWICPQGNEIPVVAVASHDTASAVIASPLNGSRAAYLSSGTWSLMGFESQTPFTNDTALAANITNEGGAEGRYRVLKNIMGLWLLQRVLQERQINDLPALIAATQALPACRFIINPNDDRFINPDEMCSEIQAACRETAQPIPGSDAELARCIFDSLALLYADVLHELAQLRGEDFSQLHIVGGGCQNTLLNQLCADACGIRVIAGPVEASTLGNIGIELMTLDELNNVDDFRQVVSTTANLTTFTPNPDSEIAHYVAQIHSTRQTKELCA”, the “soluble on expression in E. coli” value is “not soluble”. The entry for “MTGGFTPDSGRYHLYISHACPWAHRTMIFRTLKGLEDHITISAVHPDMLGEGWTFEPDDNGATGDTLYNSAFARDIYTRADPRFTGRVTVPILWDKQRETIVSNESSEIIRMFNAAFNGLTGNSDDYWPEPLRDAIAPVNERIYDTFNNGVYKAGFATTQQAYDAAIVPLFDTLDWLEERLSHNRYLMGDQLTEADWRLFTTLVRFDPVYHLHFKCNRKRIVDYPNLWGYTRELYQTPGVADTVNFDHIVRHYHYSHETINPNRIIPINPVLDFHRPHGRGLEHHHHHH” is “not soluble”. The entry for “MTGKKTLSIVGASGYAGGEFLRLALSHPYLEVKQVTSRRFAGEPVHFVHPNLRGRTNLKFVPPEKLEPADILVLALPHGVFAREFDRYSALAPVLVDLSADFRLKDPELYRRYYGEHPRPDLLGRFVYAVPELYREALKGADWIAGAGCNATATLLGLYPLLKAGVLKPTPIFVTLLISTSAGGAEASPASHHPERAGSIRVYKPTGHRHTAEVVENLPGRPEVHLTAIATDRVRGILMTAQCFVQDGWSERDVWQAYREAYAGEPFIRLVKQKKGVHRYPDPRFVQGTNYADIGFELEEDTGRLVVMTAIDNLVKGTAGHALQALNVRMGWPETLGLDFPGLHP” is “soluble”; for “MTGQNGQVARISPGKFRQLGPVNWLVAKLAARAVGAPQMHLFTTLGYRQYLFWTFAIYTGRLLHGRLPGVDTELVILRVAHLRSCEYELQHHRRMARRRGLDANTQATIFAWPDVPDGDGPRKVLSARQQALLQATDELIKDRTITAGTWERLATHLDPRLLIEFCLLATQYDAIAATITALAIPPDNPQ” it is “soluble”.

In the case of “MTGQTVECIRSAGVVGAGGAGLPTHIKADASVDTVLVNGASCEPLLMSDPYLIQAHPDIVIRGLLAVMDCTGARRGIICLKGKHAAAMAAVRGAVTREGSGRLEVFELRDFYPAGDEHVLVHEVLGRTVPQGGIPLQIGAVVSNVETLYNVALAMEGAPVTHRYVTVSGEVKRHMVVKVPVGTLVSDVLTFAGGPAITEYKVVDGGPMMGRVLPHTGRPVTKTTSGLLVLPPDHTVVARKIMDPEKVRRITTSICCQCSHCTDLCPRNLLGHSLHPHRLMRVLEGQMHAGTVAREALLCSECGLCEKFACPMMVSPREINAQIKQVLRREGVRWESTGEEPVPHPFRKSRYVATGRLLRRLDLVQYDTHPGYAGEYTPHMVRIPLAQHIGAPAVCVVAPGDTVRTGDLIGEIPEKSMGARVHASISGRVESVEDGMVTIKAC”, the “soluble on expression in E. coli” value was “not soluble”. The entry for “MTHSLVCPETVSRVSSVLNRNTRQFGKKHLFDQDEETCWNSDQGPSQWVTLEFPQLIRVSQLQIQFQGGFSSRRGCLEGSQGTQALHKIVDFYPEDNNSLQTFPIPAAEVDRLKVTFEDATDFFGRVVIYHLRVLGEKV” is “soluble”; for “MTHVTLRSEFETLIDPYAPVAQVGTGFDFTEGPIWHPIDHYLLFSDMPGDVRRRWDARRGMAEVKRPSNKCNGMTYDAELNLIVCEHATSSLIRERPDGRREVLASHFGGQELNSPNDVCVHSSGAIYFSDPWYGRMPVYGVERPRQLGFQGVYRVMPGGEPKLVVDRNLFDQPNGLCFSPDERLLYVNDTVQALIRVFDVNADGTLSNARVFASSIKSELEPGLPDGMKCDQHGNVWVTAPGGVWVYSPRGELLGKVRVPELVANLAWGGPDFRTLYLTSTHSVYAIPTRVGPRHEPYMSGRRGGAGASAGPAAAAPILTDGEMRLDPQRCAMIIQDLQNDVIMDGGAFDGSGAPAHAKQQHVVENVRRLAEAARARGVAIIHVWFVVEPGAPGVTLNAPLFEGLVDSKAMVRGSWGAAPVSGLEPRPGDFVVEKMRMSAWEGTRLETILKATGRDMIINTGAWTNMSVEHTARTGADKGYFMIVPEDCCSTMNADWHSASINFAMQNVAIVTRADAVIRALGLEHHHHHH” it is “not soluble”; for “MTIEDLQAFMKREFPQLGEAFEIVTVDEGSATMRLHADAQHLRPGGTVSGPSLFALADVAAYAAILAHIGPVALAVTTNLNINFLRKPSPGTVEAVAHLLKLGKRLAVLDISLTDGANGELVAHATATYSIPPRLEHHHHHH” it is “soluble”.

Consider “MTIIINMRSGVDEVKLRIAAKLIREGKLVAFPTETVYGLGADALNERAVRRIFEAKGRPADNPLILHIAKFSQVYELAREVPEEAKVLVERFWPGPLTIVLPRKDVVPDVTTGGLDTVAIRMPANEIALKLIELSGKPIAAPSANISGKPSPTSAEHVADDFYGKIECIIDGGETRIGVESTVIDLTEHPPVLLRPGGLPLEEIEKVIGKVRIHPAVFGKKVDTPKSPGMKYKHYAPNAEVIVVEGPREKVKGKITELVKELKERGKKVGVIGSESYNADEFFFLGSSVEEVAKNLFKALRYMDKAGVDVVIAEGVEERGLGLAVMNRLRKASGYKIVKA”, for which the “soluble on expression in E. coli” value was “soluble”. The entry for “MTIQLINESSNTAKFQQICEKWQLVHDKSASLALVLTDTRLELRKLDEAKLGAIAVNFVDGTLAHRRKFGGGRGEAIAKAVGIKGNYLPSVIDATAGLGRDAFVLAAIGCKVTLVERHPVIAALLEDGLTRAYLDAEIGEFMQQRMQLANVHNIAQLDTTTQSADVVYLDPMYPHKQKSALVKKEMRVFQHLVGADLDADQFLLPAKALATKRVVVKRPDYAPPLAEQHPSFSQKTKNHRFDIYLSPLQKRLEHHHHHH” is “soluble”. The entry for “MTISELLQYCMAKPGAEQSVHNDWKATQIKVEDVLFAMVKEVENRPAVSLKTSPELAELLRQQHSDVRPSRHLNKAHWSTVYLDGSLPDSQIYYLVDASYQQAVNLLPEEKRKLLVQL” is “not soluble”. In the case of “MTIWEISEKADYIAQRHRRLQDQWHIYCNSLVQGITLSKARLHHAMSCAPDKELCFVLFEHFRIYVTLADGFNSHTIEYYVETKDGEDKQRIAQAQLSIDGMIDGKVNIRDREQVLEHYLEKIAGVYDSLYTAIENNVPVNLSQLVKGQSPAA”, the “soluble on expression in E. coli” value is listed as “soluble”. In the case of “MTKDILILAVETSCDETSVSVIKNGRDILSNTVLSQIESHKRFGGVVPEVASRHHVEGITATINEALGDADVSIEDIDAIAVTEGPGLIGALLIGVNAAKALAFAYDKPLIPVHHIAGHIYANHIEEPLTFPLIALIVSGGHTELVYMKDHLSFEVIGETRDDAVGEAYDKVARTIGLNYPGGPQVDRLAAEGEDTYSFPRVWLDKDSYDFSFSGLKSAVINQLHNQRQKNIPIIEANVATSFQNSVVEVLTFKAIQACKEYGVQRLIVAGGVASNKGLRQSLADQCKVNDIQLTIPSPKLCTDNAAMIGVAGHYLYQQGRFADLALNGHSNIDLEEYSAE” it was “not soluble”; in that of “MTKEEIIKPENLVYKKPTLMNDNPMHYCPGCSHGVVHKLIAEVIEEMGMEDKAIGVSPVGCAVFAYNYLDIDWQEAAHGRAPAVATAIKRLWPGRLVFTYQGDGDLACIGTAETIHALNRGENITIIFINNAIYGMTGGQMAPTTLVGMKTATCPYGRDVAIHGYPLKMTEIAATLEGTAYVTRQAVHTVPAIRKAKKAIRKAFENSMNGKGSNLVEIVSTCNSGWKMTPQASNDWMVEHMFPFYPLGDLKDKE”, “not soluble”.
